Results: article PMC8177707
Like-named read-outs stand apart in the source and are kept apart here.

Tests used:
Test in all cases: cryo-EM structure
[1] = molecular target: full-length wild-type calcium-sensing receptor from Gallus gallus (ggCaSR) (Gallus gallus)
[2] = molecular target: full-length wild-type calcium-sensing receptor from Gallus gallus (ggCaSR) (Gallus gallus); remark: listed apart in the source
[3] = molecular target: full-length wild-type calcium-sensing receptor from Gallus gallus (ggCaSR) (Gallus gallus); remark: listed apart in the source
[4] = molecular target: full-length wild-type calcium-sensing receptor from Gallus gallus (ggCaSR) (Gallus gallus); remark: listed apart in the source

Measured: stoichiometry N

full-length wild-type calcium-sensing receptor from Gallus gallus (ggCaSR)
2: all assays above
